# B1: SAA: Recombinant human SAA purchased from PeproTech; major acute-phase protein of 104 amino acids (protein, UniProt P0DJI8 19-122, looked up)
# Serum amyloid A-1 protein: RSFFSFLGEAFDGARDMWRAYSDMREANYIGSDKYFHARGNYDAAKRGPGGAWAAEVITDARENIQRFFGHGAEDSLADQAANEWGRSGKDPNHFRPAGLPEKY
# System: mouse bone marrow derived macrophages (BMDM)
# Assay: G-CSF secretion in mouse BMDM (ELISA)
# Assay type: cell-based
# Conditions: for secreted mouse G-CSF: mouse BMDM
# Experimental: SAA induces G-CSF expression in monocytes and macrophages: To determine whether SAA plays a role in neutrophilia, the ability of SAA to stimulate G-CSF expression was investigated. Human peripheral blood monocytes (PBMC) were incubated with SAA, and the concentration of secreted G-CSF in the culture medium was determined at various time points after stimulation. The concentration of SAA used in this experiment (1 μM) was well within its physiological range (0.08 μM to 80 μM). […] Since subsequent studies used mice for measurement of G-CSF secretion and neutrophilia, SAA-induced G-CSF expression in mouse bone marrow derived macrophages (BMDM) was determined, of which 98% were F4/80^+ CD14^+ based on flow cytometry analysis. […] The basal level of G-CSF remained stable at approximately 42 pg/ml/10^6 cells over the entire course of incubation.
# It was next determined whether induction of G-CSF expression was a primary function of SAA or resulted from contaminating LPS in the SAA preparation. The LPS concentration in the recombinant SAA preparation was ≦0.1 ng/μg protein, translating into ≦1.14 ng/ml LPS in a typical experiment with 1 μM SAA. LPS at this or 10-fold higher concentrations was tested for its effect on the expression of G-CSF. […] Given that most proteins are heat labile while LPS is heat resistant, the ability of heat-treated SAA (1 μM) and LPS (1 μg/ml) to stimulate G-CSF secretion in mouse BMDM was examined. After boiling for 25 min, LPS retained its ability to induce G-CSF production by ˜83%. […] In parallel experiments, polymyxin B, an amphiphilic cyclic polycationic peptide that specifically binds to LPS and blocks the cytokine-inducing effect of LPS (Stokes et al., 1989), was used to treat SAA or LPS prior to incubation with BMDM. […] Under the same experimental conditions, polymyxin B reduced LPS-stimulated G-CSF secretion by more than 70%.
# It was previously shown that FPRL1 is involved in SAA-induced IL-8 production in human neutrophils (He et al., 2003). It has also been shown that SAA binds to FPRL1 and stimulates the production of matrix metalloproteinase (O'Hara et al., 2004). […] A role of TLR2 in SAA-stimulated G-CSF expression was examined.
# Cell preparation and culture: Human peripheral blood monocytes were prepared from fresh, heparinized venous blood by Ficoll-Hypaque density-gradient centrifugation. Blood drawing followed a protocol approved by the Institutional Review Board at the University of Illinois at Chicago. Purified monocytes (>93% CD14^+ by flow cytometry) were kept in nonadherent condition in RPMI 1640 containing 0.5% FBS and maintained at 37° C. Mouse macrophages were differentiated from bone marrow cells. Mouse bone marrow cells were aspirated from the femurs of 8-12-week-old mice and cultured at 37° C. in 5% CO2 in RPMI 1640 medium containing 10% FBS, 15% L-cell conditional medium, 10 mM HEPES, 2 mM L-glutamine, 100 IU/ml penicillin, and 50 μg/ml streptomycin. The medium was changed every three days. Macrophages (about 98% F4/80+ by flow cytometry) were obtained after 7 days of culture. The mouse macrophage cell line RAW264.7 cells were maintained in DMEM medium supplemented with 10% FBS, 10 mM HEPES, 2 mM L-glutamine, 100 IU/ml penicillin, and 50 μg/ml streptomycin. TLR2-HeLa cells were generated by transfection of HeLa cell with the expression construct pUNO-hTLR2 (InvivoGen). Stable transfectants were selected with Blasticidin at 20 μg/ml for 2 weeks. Mock-transfected HeLa cells were generated similarly, with a pUNO empty vector. Cells were maintained in DMEM supplemented with 10% heat-inactivated FBS, 2 mM L-glutamine, 100 IU/ml penicillin, and 50 μg/ml streptomycin. Expression of TLR2 was confirmed using an anti-TLR2 antibody (eBioscience) and FTTC-conjugated anti-mouse antibody, on a FACSCalibur flow cytometer (Becton Dickinson). FIGS. 12 and 13 are plasmid maps of pUNO-hTLR2 and pNF-κB-Luc, respectively. […]
molecule,measurement,setting,value
B1,maximal G-CSF production,"BMDM, SAA, experiments of FIG. 4",446 pg/ml/10^6 cells
same,ability to stimulate G-CSF secretion after heat treatment,"SAA 1 μM, boiled 25 min, BMDM, 16 h",could no longer stimulate G-CSF secretion
same,secreted mouse G-CSF,"SAA 1 μM, after 8 h",155 pg/ml/10^6 cells
same,secreted mouse G-CSF,"SAA 1 μM, after 24 h",965 pg/ml/10^6 cells
same,ability to induce G-CSF protein secretion in tlr2−/− BMDM,"tlr2−/− vs wild-type BMDM, SAA 1 μM",drastically reduced

# — patent US7629135B2, “Toll-like receptor agonists and antagonists and methods of use thereof” (The Board of Trustees of the University of Illinois, priority 2006, dated 2009)
